Assays:
STAT3 = experiment: pSTAT3 induction and hIL-10 in intestinal tissue 40 min after oral gavage, immunofluorescence and image analysis; format: in vivo, rat; conditions: 40 min post oral gavage
Protocol: This observation is consistent with findings in mice that intestinal epithelial cells can express IL-10 receptors at their apical surface under certain conditions associated with development and maintenance of barrier function. […] In order to quantify how test articles affected intestinal IL-10 signal transduction pathways, image analysis was performed: high-throughput image batches were collected, segmented by epithelial versus lamina propria localization, and then by cellular features.

[1] = Oral gavage 10 mg/kg in non-inflamed mice: hIL-10 in serum and tissue, serum IL-1Ra; format: in vivo
[2] = PK/PD by route (oral, subcutaneous, intravenous) in NHP; format: in vivo, Macaca fascicularis
From the text: For oral administration the IL-10 delivery construct was formulated in size 0 enteric coated capsules. For intravenous or subcutaneous administration it was formulated as a liquid in DS lyo formulation.

[3] = test system: cells of the lamina propria (LAMP1, CD11c, CD19, CD34, CD3); experiment: Cell targeting in the lamina propria after intraluminal injection, immunofluorescence; format: in vivo, Wistar rats
Protocol: Rats were anesthetized using inhaled isoflurane and euthanized by inhaled CO2.
Experiments were initiated by making an approximately 4 cm abdominal incision to access the mid-jejunum region of the small intestine. After performing the incision, 50 μl of a prepared solution of the IL-10 delivery construct (typically at about 1 mg/mL) was injected into the intestinal lumen of an area devoid of foodstuffs through a 27-gauge needle using a 1 mL syringe. The mesentery adjacent to the site of injection was labeled with a marker and the intestine was returned to the abdominal cavity, with the incision being closed with clamps.
At specific times, the injected intestine was retrieved, surgically isolated and flushed with a 4° C. isotonic PBS. Washed, excised samples were fixed (4% paraformaldehyde in PBS) overnight at 4° C. before dehydration through graded series of ethanol/water solutions and overnight incubation in chloroform.
Dehydrated tissues were immersed in wax, sectioned, and mounted on poylysine slides and processed for antigen retrieval using sodium citrate. Afterward, sections were permeabilised with 0.2% Triton-X100 in PBS prior to thrice washing in PBS and blocking with 2% BSA+2% serum of the animal the secondary antibodies have been raised. Primary antibodies were diluted in 1% BSA, 0.1% Triton-X100 in PBS and incubated overnight at 4° C. in humidified air. Fluorescent secondary antibodies were diluted in 1% BSA, 0.1% Triton-X100 in PBS and incubated for 2 h at RT prior to processing for confocal microscopy. On occasion, an approximately 1 cm section of intestine at the injection site was collected for biochemical studies.
Proteins for specific cell types were examined by immuno-fluorescence using confocal microscopy. The IL-10 delivery construct components (the carrier, also referred to herein as “cholix,” and IL-10) were followed separately with either a polyclonal antibody (pAb) or monoclonal antibody (mAb) to IL-10 or a pAb or mAb to the carrier domain to allow co-localization with pAb or mAbs available (TABLE 46).

[4] = test system: enterocytes and lamina propria cells; experiment: Vesicular trafficking during apical to basal transcytosis (Rab7, Rab11, LMAN1, LAMP1), rat jejunum; format: in vivo
Protocol: Immunofluorescence microscopy images of rat jejunum were obtained following a 50 uL intraluminal injection of an IL-10 delivery construct prepared in PBS at ˜40 uM. For FIGS. 129-133: arrow=apical (luminal) epithelial membrane; dashed line=epithelial cell-basement membrane demarcation; 1-p=lamina propria; G=goblet cell. Cell nuclei stained with DAPI (blue).
The timing of LMAN1 redistribution to the basal compartment coincides with the presence of hIL-10 being ultimately detected in non-polarized cells within the lamina propria where it was not associated with LMAN1.
Ultimately, the delivery construct is delivered to lysosome-like structures within a large fraction of cells within the lamina propria, an outcome that would limit its systemic distribution following A-B transcytosis.

[5] = Liquid formulation screens: freeze/thaw, shear stress, short-term stability; format: physicochemical; conditions: 20 mg/mL, formulations of TABLE 11
Protocol: Formulation development to establish the lyophilization buffer was performed by initially screening the freeze-thaw and shear-induced liquid stability of the target construct following dialysis into combinations of several components outlined below:
Using these two formulations, in order to ensure that the UF/DF step would function as intended and that freezing at the beginning of the lyophilization process would be acceptable, a final liquid formulation freeze/thaw screen and short-term stability study was conducted at higher protein concentrations as outlined in TABLE 11 below.
This formulation was recommended to proceed as the buffer to be used in the UF/DF formulation step prior to lyophilization.

DSS-induced colitis = DSS-induced colitis dose-response (0.3, 3, 10, 30 mg/kg): in-life, necropsy, histology; format: in vivo, C57BL6/J mice
Protocol: DSS-induction of murine colitis was performed by Bolder BioPATH, Inc. (CO, USA). Female C57BL6/J mice (8-10 weeks old) were given 2.5% dextran sodium sulfate (w/v) (Spectrum, Lot #2DC0020) ad libitum in the drinking water from day 0 through day 7. On day 7, DSS was replaced with water, and the animals were maintained until day 10.
Colon histology was scored based on inflammation, gland loss, erosion and hyperplasia (max of 5 each), and these were totaled in the summary score. […] Five additional parameters (edema, neutrophil infiltration, mucosal thickness, lymphoid aggregate and lymphoid aggregate size) were also quantified. […] These histological results thus indicate a mild degree of local drug efficacy.

IL-1Ra, IL-1β = experiment: RT-PCR of IL-1Ra and IL-1β in near-distal colon; format: in vivo, mice; conditions: 9 mg/kg

B1: IL-10 delivery construct: recombinant homodimeric fusion protein: N-terminal methionine, cholix386 domain, polyGlySer spacer, recombinant human IL-10 (protein)
chain: MVEEALNIFDECRSPCSLTPEPGKPIQSKLSIPSDVVLDEGVLYYSMTINDEQNDIKDEDKGESIITIGEFATVRATRHYVNQDAPFGVIHLDITTENGTKTYSYNRKEGEFAINWLVPIGEDSPASIKISVDELDQQRNIIEVPKLYSIDLDNQTLEQWKTQGNVSFSVTRPEHNIAISWPSVSYKAAQKEGSRHKRWAHWHTGLALCWLVPMDAIYNYITQQNCTLGDNWFGGSYETVAGTPKVITVKQGIEQKPVEQRIHFSKGNAMSALAAHRVCGVPLETLARSRKPRDLTDDLSCAYQAQNIVSLFVATRILFSHLDSVFTLNLDEQEPEVAERLSDLRRINENNPGMVTQVLTVARQIYNDYVTHHPGLTPEQTSAGAQAGGGGSGGGGSGGGGSPGQGTQSENSCTHFPGNLPNMLRDLRDAFSRVKTFFQMKDQLDNLLLKESLLEDFKGYLGCQALSEMIQFYLEEVMPQAENQDPDIKAHVNSLGENLKTLRLRLRRCHRFLPCENKSKAVEQVKNAFNKLQEKGIYKAMSEFDIFINYIEAYMTMKIRN
modifications: homodimer
hIL-10 and pSTAT3 in intestinal tissue (STAT3): extensive amounts of hIL-10 and a large number of cells that were positive for pSTAT3 within the lamina propria
onset of IL-1Ra induction ([1]; 10 mg/kg): 2.5-4 h post oral gavage
hIL-10 in small intestinal lysates relative to colonic lysates ([1]; 10 mg/kg oral gavage): ~10 fold higher
serum IL-1Ra levels ([1]; 10 mg/kg oral gavage, 4 h): significantly increased
systemic levels of IL-10 after oral treatment ([2]; oral 1 mg or 5 mgs vs SC 0.2 mg/kg, IV 0.05 mg/kg): minimal systemic levels of IL-10
IL-1Ra/IL-1β ratio ([2]; subcutaneous or intravenous administration): minimal effect
time by which an extensive amount reached the lamina propria ([3]; 1-minute pulse, intraluminal injection): ≤ 15 min
co-localization with LAMP1-positive lysosomes in enterocytes ([3]; 15-minute time course): little or no co-localization
co-localization with CD3 antigen (T lymphocytes) ([3]; lamina propria): striking co-localizations
co-localization with CD19-positive cells (B-lymphocytes) ([3]; lamina propria): failed to co-localize
co-localization with CD34-positive cells (endothelia) ([3]; lamina propria): failed to co-localize
co-localization with CD11c (dendritic cells) ([3]; rat jejunum lamina propria): did not co-localize with CD11c antigen to any striking extent
co-localization with LMAN1 ([4]; 1-15 min): co-localized with redistributing LMAN1
co-localization with LAMP1 in polarized enterocytes ([4]; 1 min post ILI, not increasing over 15 min): Limited LAMP1/delivery construct co-localizations
co-localization with LAMP1 in non-polarized cells within the lamina propria ([4]; 10 min and 15 min post ILI): extensive LAMP1/delivery construct co-localizations
co-localization with Rab7+ vesicles in enterocytes ([4]; rat, in vivo): predominantly in the apical vesicular compartment
co-localization with Rab11+ vesicles in enterocytes ([4]; rat, in vivo): mostly in the basal vesicular compartment
time course of completion of A-B transcytosis ([4]; rat, in vivo): 10 to 15 min
aggregation during freeze/thaw or at 1 week at 4 C [5]: did not show any significant increases in aggregation
edema width, mucosal thickness, hyperplasia in the mid region (DSS-induced colitis; 30 mg/kg, relative to Vehicle): significantly improved
colon length (DSS-induced colitis; 10 and 30 mg/kg, p<0.05 vs vehicle): Significant improvement in colon length
DSS-induced weight loss (DSS-induced colitis; construct 30 mg/kg, CsA 75 mg/kg, q.d. oral): significantly reduced DSS-induced weight loss
summed histology score (inflammation, gland loss, erosion, hyperplasia) (DSS-induced colitis; mouse, in vivo): did not reveal any significant improvements
IL-1Ra/IL-1β mRNA ratio in colonic tissue (IL-1Ra, IL-1β): increase
mRNA expression of IL-1Ra in near-distal colonic tissue (IL-1Ra, IL-1β): trend towards augmented mRNA expression of IL-1Ra
